B1: Hammerhead Ribozyme (parent)
chain: ACCGGAUGUGCUUUCCGGUCUGAUGAGUCCGUGAGGACGAAACAG

Variants of: B1
Experiment: self-cleavage, relative activity (ratio to wild type); higher = more cleavage; co-transcriptional

Question: For G4C U21C, which self-cleavage is on record?
Answer: 0.363

Question: For A6C A40G, which self-cleavage is on record?
Answer: 0.38

Question: For G22U C43U, which self-cleavage is on record?
Answer: 0.305

Question: For U21A A23G, which self-cleavage is on record?
Answer: 0.419

Question: For G5A G35C, which self-cleavage is on record?
Answer: 0.66

Question: For U9G A23U, which self-cleavage is on record?
Answer: 0.366

Question: Which self-cleavage does the source give for U24G G36U here?
Answer: 0.803

Question: Which self-cleavage does the source give for U12G G36A here?
Answer: 0.518

Question: Which self-cleavage does the source give for A34C C43U here?
Answer: 0.287

Question: For G31A C38U, which self-cleavage is on record?
Answer: 0.919

Question: For G33U C38U, which self-cleavage is on record?
Answer: 0.995

Question: Which self-cleavage does the source give for G17A C43A here?
Answer: 0.372

Question: For G25C C30A, which self-cleavage is on record?
Answer: 0.262

Question: With A6U A44C as the variant, how does the self-cleavage read?
Answer: 0.455

Question: With C20G G39A as the variant, how does the self-cleavage read?
Answer: 0.34

Question: With G35A A44C as the variant, how does the self-cleavage read?
Answer: 0.42

Question: With G10A G17U as the variant, how does the self-cleavage read?
Answer: 0.986

Question: For G25A G36C, which self-cleavage is on record?
Answer: 0.302

Question: Which self-cleavage does the source give for G4C G5C here?
Answer: 0.327

Question: Which self-cleavage does the source give for G4C G5U here?
Answer: 0.418

Question: Which self-cleavage does the source give for C15U A42G here?
Answer: 0.265

Question: Which self-cleavage does the source give for A34C A42G here?
Answer: 0.254

Question: For U28G U32G, which self-cleavage is on record?
Answer: 0.449

Question: With U14G C43A as the variant, how does the self-cleavage read?
Answer: 0.304

Question: Which self-cleavage does the source give for U9G G45U here?
Answer: 0.454

Question: For U9G G35C, which self-cleavage is on record?
Answer: 0.562

Question: With C20A A23C as the variant, how does the self-cleavage read?
Answer: 0.353

Question: Which self-cleavage does the source give for G18U G35C here?
Answer: 0.515

Question: With A1C U28A as the variant, how does the self-cleavage read?
Answer: 0.389

Question: With G10C U28G as the variant, how does the self-cleavage read?
Answer: 0.38

Question: With U13A C43A as the variant, how does the self-cleavage read?
Answer: 0.254

Question: Which self-cleavage does the source give for C3U C43G here?
Answer: 0.385

Question: Which self-cleavage does the source give for C2G U24G here?
Answer: 0.356

Question: For C2G U24A, which self-cleavage is on record?
Answer: 0.476

Question: For C11G A26G, which self-cleavage is on record?
Answer: 0.393

Question: With U7C C30U as the variant, how does the self-cleavage read?
Answer: 0.842

Question: Which self-cleavage does the source give for C29U C38G here?
Answer: 0.559

Question: With G17U C38A as the variant, how does the self-cleavage read?
Answer: 0.465

Question: For G5C U24C, which self-cleavage is on record?
Answer: 0.625

Question: With C2G U19C as the variant, how does the self-cleavage read?
Answer: 0.308

Question: With A34G A44U as the variant, how does the self-cleavage read?
Answer: 0.526

Question: With A6C U32A as the variant, how does the self-cleavage read?
Answer: 0.901

Question: Which self-cleavage does the source give for C3A U19G here?
Answer: 0.296

Question: Which self-cleavage does the source give for U21C G25U here?
Answer: 0.342

Question: Which self-cleavage does the source give for A6C C20G here?
Answer: 0.335

Question: With C3G U7G as the variant, how does the self-cleavage read?
Answer: 0.625

Question: With U19C G39U as the variant, how does the self-cleavage read?
Answer: 0.271

Question: With G18U G31U as the variant, how does the self-cleavage read?
Answer: 0.781

Question: For U19G C43A, which self-cleavage is on record?
Answer: 0.319

Question: Which self-cleavage does the source give for A34C here?
Answer: 0.909

Question: Which self-cleavage does the source give for U19G G27C here?
Answer: 0.288

Question: With A42C as the variant, how does the self-cleavage read?
Answer: 0.373

Question: For U13A U19A, which self-cleavage is on record?
Answer: 0.36

Question: Which self-cleavage does the source give for G39U A40C here?
Answer: 0.295

Question: With C20A G33C as the variant, how does the self-cleavage read?
Answer: 0.555

Question: With G36U C43A as the variant, how does the self-cleavage read?
Answer: 0.36

Question: With C3G U13C as the variant, how does the self-cleavage read?
Answer: 0.655

Question: For C16G U21C, which self-cleavage is on record?
Answer: 0.354

Question: With A1G C15A as the variant, how does the self-cleavage read?
Answer: 1.06

Question: For U12G C29G, which self-cleavage is on record?
Answer: 0.736

Question: With U14G G22A as the variant, how does the self-cleavage read?
Answer: 0.314

Question: With U32G A44C as the variant, how does the self-cleavage read?
Answer: 0.424

Question: Which self-cleavage does the source give for U9A G17U here?
Answer: 0.565

Question: With G4U C16A as the variant, how does the self-cleavage read?
Answer: 1.07

Question: With G22U G36U as the variant, how does the self-cleavage read?
Answer: 0.301

Question: With C38A as the variant, how does the self-cleavage read?
Answer: 0.833

Question: For U21A G27U, which self-cleavage is on record?
Answer: 0.294

Question: With G18U C43A as the variant, how does the self-cleavage read?
Answer: 0.286

Question: For C30A G45C, which self-cleavage is on record?
Answer: 0.454

Question: For C11U G39U, which self-cleavage is on record?
Answer: 0.3

Question: With G8U G27U as the variant, how does the self-cleavage read?
Answer: 0.554

Question: Which self-cleavage does the source give for U24A U32A here?
Answer: 0.859

Question: Which self-cleavage does the source give for U7C G25U here?
Answer: 0.312

Question: Which self-cleavage does the source give for C2A G39C here?
Answer: 0.305

Question: For U19G G39A, which self-cleavage is on record?
Answer: 0.378

Question: With G33C A40G as the variant, how does the self-cleavage read?
Answer: 0.339

Question: Which self-cleavage does the source give for A6G A23C here?
Answer: 0.277

Question: For A6C U19C, which self-cleavage is on record?
Answer: 0.397

Question: Which self-cleavage does the source give for U12A G25A here?
Answer: 0.303

Question: For U7A G27U, which self-cleavage is on record?
Answer: 0.32

Question: Which self-cleavage does the source give for U13A G22U here?
Answer: 0.381

Question: For C2A U12A, which self-cleavage is on record?
Answer: 0.62

Question: With G5A U13G as the variant, how does the self-cleavage read?
Answer: 1.72

Question: Which self-cleavage does the source give for U14A C30A here?
Answer: 0.838

Reference: the RNAGym collection of RNA variant scans (doi:10.7554/elife.80360)
